Assay results taken from article PMC6143631 (Nature Communications, 2018).

B1: Paf1^(34–103) (domain or fragment, S. cerevisiae, UniProt P38351 34-103, looked up)
chain: ETNADSSQLINSLYIKTNVTNLIQQDEDLGMPVDLMKFPGLLNKLDSKLLYGFDNVKLDKDDRILLRDPR
notes: In the crystal it stood as part of the single-chain fusion m36; source: E. coli BL21(DE3) Codon Plus, co-expressed with a Ctr9 fragment, purified (Ni-NTA, SEC)

Tests used:
Ctr9^(1–270) = molecular target: T1, Ctr9^(1–270) (S. cerevisiae, UniProt P89105 1-270); assay: AUC; sedimentation velocity, 42,000 rpm, 4 °C, interference detection; 20 mM HEPES pH 7.5, 150 mM NaCl, 1 mM EDTA, 1 mM DTT; settings: both partners purified
T1 construct: S. cerevisiae Ctr9, residues 1-270
T1 sequence (looked up): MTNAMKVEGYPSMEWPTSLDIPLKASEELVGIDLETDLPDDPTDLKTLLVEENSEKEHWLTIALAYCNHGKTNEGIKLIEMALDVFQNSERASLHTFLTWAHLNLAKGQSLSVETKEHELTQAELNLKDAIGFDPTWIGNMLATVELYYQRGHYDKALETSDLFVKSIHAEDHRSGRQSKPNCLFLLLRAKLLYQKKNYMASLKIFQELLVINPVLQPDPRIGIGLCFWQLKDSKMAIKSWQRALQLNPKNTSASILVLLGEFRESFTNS

Ctr9^(1–313) = molecular target: T2, Ctr9^(1–313) (S. cerevisiae, UniProt P89105 1-313); assay: SEC; two fragments co-expressed in E. coli and co-purified; analytical size-exclusion column with SDS-PAGE of the fractions; settings: both partners purified
T2 construct: In the crystal it stood as part of the single-chain fusion m36; source: E. coli BL21(DE3) Codon Plus, co-expressed with a Paf1 fragment, purified (Ni-NTA, SEC)
T2 sequence (looked up): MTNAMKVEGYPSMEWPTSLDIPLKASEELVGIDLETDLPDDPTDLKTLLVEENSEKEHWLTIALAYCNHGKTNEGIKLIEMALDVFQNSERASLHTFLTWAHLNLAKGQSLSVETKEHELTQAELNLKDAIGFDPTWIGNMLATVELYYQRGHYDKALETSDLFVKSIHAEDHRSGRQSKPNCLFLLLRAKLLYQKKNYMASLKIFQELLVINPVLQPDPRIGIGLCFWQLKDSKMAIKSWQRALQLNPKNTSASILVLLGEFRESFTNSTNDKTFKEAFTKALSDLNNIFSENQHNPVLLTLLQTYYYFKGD

| Binder | stoichiometry N (Ctr9^(1–270)) | binding result (Ctr9^(1–313)) |
| --- | --- | --- |
| B1 | 1 | – |
| DEDLGMPVDLMKFPGLLNKLDSKLLYGFDNVKLDKDDRILLRDPR (domain or fragment, S. cerevisiae, UniProt P38351 59-103, looked up) [Paf1^(59–103)] | – | binds |
